± gives the uncertainty stated by the source.

The values that follow come from the supplement of paper PMC12042874.

A short description of this data set: amyloid nucleation score (Sup35N fusion, yeast selection) (log enrichment); library NNK2; higher = more nucleation; inactive = no reads after selection. A digest of the protocol: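 Libraries of peptides of 20 random codons fused to Sup35N were expressed in psi-negative yeast and induced 24 hours with 100 μM copper sulfate. Selection was 7 days at 30°C on medium lacking adenine and uracil, and plasmid inserts were Illumina-sequenced before and after selection. Nucleation score is the DiMSum log enrichment of output over input reads, centred on the mode score of non-aggregating sequences, and sequences with under 100 input reads were left out.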

On to GEHRQGCYFGAIVFAILMFS, for which the amyloid nucleation score is 0.007 ± 0.55.
Next, GHLNFS: -0.166 ± 1.1; AHHCVGYCSHIFQDPRGRVM: 0.22 ± 0.44; HLSFGFRRNRR: 0.967 ± 0.2.
Turning to AGLLPENYFSCILGINVVIF, the amyloid nucleation score was determined as 3.13 ± 0.065.
As for FVRNKLMADFFWLGFYN, the amyloid nucleation score was -1.79 ± 0.63.
In turn, RYIIL returned an amyloid nucleation score of 0.728 ± 0.62.
For the substance PALQCLSHRAIA, the amyloid nucleation score was found to be 0.222 ± 0.62.
Substance KYSIGTETVHGCLQPLCPAH had an amyloid nucleation score of -0.095 ± 0.46.
Next, IYGLYG: 0.515 ± 0.51.
The figure for IYQVRLYD is -0.923 ± 0.5; for MTIQSYGVILLLISVYWLSF it is 0.584 ± 0.66; for SDLAWGERHLLEGLLVRPTT it is 0.508 ± 0.29.
As for DWPRLLNFWRY, the amyloid nucleation score is -0.284 ± 1.1.
With TLGVSRNLALSTEARTLRPY, the amyloid nucleation score was -0.041 ± 0.42.
The substance GDRDVI had an amyloid nucleation score of 1.31 ± 0.38.
Next, LAGFGMNFSFRFSVLTWGSV: 3.13 ± 0.09.
Next, VNVGKCNRTVGIWLLWKVNA: 0.584 ± 0.44; HCSFG: 2.32 ± 0.12.
The figure for CWGGISSALRQ is 0.698 ± 0.8; for DTWVLDIMYFSLRYWVFVSV it is 0.228 ± 1; for LYNCVRYSSYLFNVVPCRGG it is “inactive”.
Substance NSYSGAVLT came in with an amyloid nucleation score of -0.464 ± 1.1.
For the substance CLSPW, the amyloid nucleation score is 0.202 ± 0.46.
The substance WVYRLMLTMLR had an amyloid nucleation score of -0.055 ± 0.41.
On to IRWGNRLTLERGFFKPFY, for which the amyloid nucleation score entry was “inactive”.
The figure for VFYVCFKLQIIDGMLNWCKG is 7.237 ± 0.032; for TKVQERLGHF it is 1.46 ± 0.58; for FWVALYFSTCFPHDMLSSGP it is -0.734 ± 0.54.
The substance HDVFVTYTTLLITARLMRRP yielded an amyloid nucleation score of 1.86 ± 0.27.
The substance SLRMGFTKSVVARGAWRNWV had an amyloid nucleation score of 4.1 ± 0.057.
Next, TRGCFAVSSKYMLSYVGLNR: -0.021 ± 0.21.
As to VKSLLRDLCGPGCMLYMIVH, the amyloid nucleation score was -0.11 ± 0.53.
Consider RRCEGCN, for which the amyloid nucleation score is -0.299 ± 1.
The substance KLHSVQLNTRVLIN came in with an amyloid nucleation score of 0.219 ± 0.26.
In the case of CFLELYSWFKDAVTTFN, the amyloid nucleation score result was “inactive”.
Next, AWNLFLFQSRL: 4.7 ± 0.073.
As for TFDVTRI, the amyloid nucleation score is -0.311 ± 0.33.
For WYGFFTVLWSKTVRLDFNPM, the amyloid nucleation score is -1.05 ± 0.54.
FLPCL had an amyloid nucleation score of -0.739 ± 1.
The figure for RNQNLLWNVSGIAFNKMRRK is 4.02 ± 0.093; for NGSYGSYMHFPEPIMSIFMY it is “inactive”.
In the case of ILWWFRVTAHAWEDETGWMW, the amyloid nucleation score stood at 0.098 ± 0.23.
VSTKVGSSYEVVGYKVSHFG had an amyloid nucleation score of -0.291 ± 0.76.
ACQPVWIESRFSLAERTRLS came in with an amyloid nucleation score of 0.012 ± 1.
Take WMLWANIDPGDAPYREASAG: the amyloid nucleation score was 4.06 ± 0.05.
In the case of QSWSRQSATGPWTLVCQRRP, the amyloid nucleation score was 0.69 ± 0.51.
Substance FFMGGMRASNMDYATSWLK showed an amyloid nucleation score of 4.3 ± 0.099.
Regarding LNISYSAH, the amyloid nucleation score came to 0.264 ± 0.65.
The substance HRVYEFIKPLGPGAHTFVFT yielded an amyloid nucleation score of 0.097 ± 1.1.
For the substance VMSFHWCVVSSVPWDCQACH, the amyloid nucleation score was found to be 3.93 ± 0.1.
Next, IRFVESSQMKVLPRGGVGLN: “inactive”; QAISVEVVGYRSNLESFTIW: 1.71 ± 0.11.
As to GYCYYVPFMVGP, the amyloid nucleation score is 0.817 ± 0.8.
The figure for GFLGCESREKEECSIKERLC is -0.515 ± 1; for DSVIGSLCPNCYGWRISKVM it is 0.081 ± 1.1; for LMTPVNSILLRLWCSIFLCF it is 3.26 ± 0.12.
The figure for YNSVFLRNLRSVGWTKAPLW is -0.387 ± 0.76; for LNLLNPWYSCKQSRVYNGYI it is -1.31 ± 0.54.
With CMKEMLVMLTCYICVSKSLI, the amyloid nucleation score stood at 3.66 ± 0.079.
Substance ECGDRIL showed an amyloid nucleation score of 0.536 ± 0.42.
The substance DRFQMGCLWGNNEYLLSAMA gave an amyloid nucleation score of -1.97 ± 0.75.
The entry for YFKFFWNAQMLGCA is “inactive”; for GSKGIRRYCLTIFVSPVQSA it is 0.895 ± 0.81; for EVLSRDRSSAPFAVLLAGSR it is 0.129 ± 0.76.
ILALNWLFSICST came in with an amyloid nucleation score of 6.903 ± 0.035.
Next, CMARPMSVLECHSCWEDALG: 0.221 ± 0.31; YFLALAYRAVPLLWYRPRGL: 0.751 ± 0.38; ELMVTVVDHCTFVVTRLCGE: 7.184 ± 0.064.
SLEPYMFCSILINFYFFISV yielded an amyloid nucleation score of 3 ± 0.14.
The figure for VPSTIWMTR is 0.585 ± 0.38; for KAKIATKVSLFLLSGYVDLQ it is -0.356 ± 0.65.
In the case of VTVTYLWIC, the amyloid nucleation score was found to be 1.88 ± 0.28.
Next, NCLLVLHFG: 6.91 ± 0.073; QKMRFYWLVMMAV: -0.283 ± 1.
In turn, VRTPEYSLHLVAS gave an amyloid nucleation score of -0.02 ± 0.61.
The figure for LDFVQCILAVIQGSRDAAGA is 0.438 ± 0.64; for SRHTIVTGRWLFRDYQSLLW it is 0.19 ± 1.1; for KVLTCRIYSIWVLIC it is 0.009 ± 0.32.
The figure for STRCCTRYVCRTAV is -0.158 ± 0.34; for YEGYLVSVQLRRMWDVQLGP it is 3.79 ± 0.054; for KWMFEVTVYGRWYVTHQAGL it is 4.827 ± 0.041.
Substance SSSKRNSKDPSGLGLVCVE yielded an amyloid nucleation score of 0.795 ± 0.46.
Next, LTRCPYGSCLNWERWVGYMM: 1.93 ± 0.1.
RLLRLDQKQIMVRSSSAVLR came in with an amyloid nucleation score of -0.107 ± 0.32.
Next, VTIGLNDFLTWDRWFYVFYG: -0.873 ± 0.25.
The figure for GFFTPPRVRNNTSEGDVK is -0.418 ± 1.1; for VTIYRGVRFGTFLPCRVRYG it is 1.48 ± 0.26; for RCRILA it is 2.51 ± 0.1.
The figure for HWDLIGGVL is -0.176 ± 1.1; for TKTILRILSQFIYDSPLLEM it is -0.19 ± 1.1; for WRMGTPNIRMLC it is -0.318 ± 0.38.
On to VFVSCYYAYLLRDTTNFYVG, for which the amyloid nucleation score result is “inactive”.
Next, QLVYCVNFVFFARVTNRSAR: 3.95 ± 0.06; SEVCNCVGLGSGCDVYGA: 3.17 ± 0.094; MEIRTQLFVLVCSKNILGDS: -0.849 ± 1.1.
Next, YGDSWLFCYVE: -1.12 ± 0.64.
For TVMNVDWFKDYLLTNFVCSD, the amyloid nucleation score is 0.063 ± 0.36.
The figure for GLNIGVCLIMHEDRTNSGGK is 8.011 ± 0.032; for ARTRLALWGLQRRGSPVFDN it is 0.157 ± 0.63; for MVWSSRDS it is -0.548 ± 0.54.
SGLGGGFFSIVCYTHISVRE: the amyloid nucleation score was -0.069 ± 0.55.
GLERNRFGRQCLGWLLWNEA gave an amyloid nucleation score of 0.065 ± 1.1.
Substance VSVGWRVAVWWILKWEHLSR gave an amyloid nucleation score of 9.541 ± 0.034.
Regarding DRLMLALGKGHGFEIGGPVL, the amyloid nucleation score came to 1.37 ± 0.39.
On to RIGTFWRGQDKLDVFKYGVV, for which the amyloid nucleation score was -0.236 ± 0.37.
For the substance YYICDLLHSRCEVKLD, the amyloid nucleation score is -0.551 ± 0.37.
Next, GVKRLVTGVCNKYRDIFFVG: -0.22 ± 1.
SNCFNCYLISNWKYVTVSLS came in with an amyloid nucleation score of 6.23 ± 0.067.
Consider RLGPSSWSWHL, for which the amyloid nucleation score turned out to be 1.52 ± 0.29.
Next, SKYLCRICDPMHLNLFCRWQ: 4.11 ± 0.059; FMTLAGFSGAVEASGADWRR: -0.606 ± 0.63.
EYMTMDELDWWSRQCFGWAQ displayed an amyloid nucleation score of 1.64 ± 0.42.
In turn, IPFASLNEFTSATY yielded an amyloid nucleation score of 3.07 ± 0.1.
Regarding VINRMCIVWPYMSSYWEWNV, the amyloid nucleation score came out at 9.126 ± 0.06.
IVHYGETNG gave an amyloid nucleation score of 0.494 ± 0.38.
LLLASAMWYGKLIRMRLLG had an amyloid nucleation score of 0.659 ± 0.48.
Consider NRKEQVVPLHVRSPI, for which the amyloid nucleation score stood at 1.13 ± 0.17.
Next, TTYSRS: -1.26 ± 0.62; RFFCYKSYMLLECLRIVSVC: -0.853 ± 0.78; CSSSVNCMFITC: 7.87 ± 0.047.
In turn, LGSWR showed an amyloid nucleation score of -0.829 ± 1.1.
The figure for WNTIYMSTFVIRDFAIYIKY is 7.53 ± 0.058; for CERLNAPHLHQVRIPKRYNM it is 0.306 ± 0.64; for CTNAGRFMTWSNFRYIG it is 0.501 ± 0.8.
The figure for REGYNAIMYDV is -1.27 ± 0.62; for CNYYFVKYQGINGCGTPVKF it is 3.01 ± 0.12; for YIVYCLFDLLTPNKMWLSPQ it is -0.661 ± 0.76.
With SRITCKDVMLL, the amyloid nucleation score was -0.654 ± 0.49.
Next, IVVQWMYVF: -0.382 ± 0.33.
For SLEGLLRPRKLVSCIDT, the amyloid nucleation score entry was “inactive”.
The figure for TIRSCVNF is 1.41 ± 0.1.
In the case of NVRVRLET, the amyloid nucleation score was determined as 0.027 ± 0.27.
The figure for CVIYVKVIIMPVSIVDVGSV is -0.351 ± 0.48.
Consider SNVLFWI, for which the amyloid nucleation score entry was “inactive”.
In turn, CKVHFW yielded an amyloid nucleation score of 0.596 ± 0.62.
The figure for VISSLSISCYDHSVYVKAVK is 0.445 ± 0.33; for FLFMLLSPVSMARLDKVMMG it is 0.313 ± 0.65.
The figure for AHLAKSKVGLFCHNVMFEVP is -0.381 ± 1.1; for GGIFFCGIWCLVYDVSVFVA it is 3.43 ± 0.11; for IHSNEDFVRSESGVLDAYSV it is -0.627 ± 0.42.
